{"source": "patent US20160068844A1", "about": "(Sanofi, published 2016)", "key": {"human IL17A": {"molecular_target": "T1, human IL17A (human, UniProt Q16552 24-155)", "T1 construct": "also called interleukin-17A", "T1 sequence (looked up)": "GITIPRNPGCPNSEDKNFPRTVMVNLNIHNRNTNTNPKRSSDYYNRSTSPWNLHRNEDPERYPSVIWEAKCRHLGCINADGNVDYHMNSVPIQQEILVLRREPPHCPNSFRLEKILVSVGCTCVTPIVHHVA", "assay": "ELISA, plates coated with IL17A, serial dilutions of sIL17R, detection with biotinylated anti-IL17RA and streptavidin-HRP", "description": "(§1) For sIL17R binding to IL17A, ELISA plates were coated with 100 μg/ml human IL17A or mouse IL17A overnight, then blocked with 1% BSA. Serial two-fold dilutions of sIL17R were added in triplicate to the plate and incubated for 1 h at 37° C. Unbound receptor was washed from the plate in an ELISA plate washer. 100 μl biotinylated anti-IL17RA (1 μg/ml) was added to each well and incubated 1 h at room temperature and excess antibody was washed away. Each well was incubated with streptavidin-HRP conjugate and washed. Bound HRP was measured by incubation with TMBD substrate for 20 minutes followed by addition of acid stop solution. OD was measured at 450 nm."}, "mouse IL17A": {"molecular_target": "T2, mouse IL17A (mouse, UniProt Q62386 26-158)", "T2 construct": "also called recombinant mouse Il17a", "T2 sequence (looked up)": "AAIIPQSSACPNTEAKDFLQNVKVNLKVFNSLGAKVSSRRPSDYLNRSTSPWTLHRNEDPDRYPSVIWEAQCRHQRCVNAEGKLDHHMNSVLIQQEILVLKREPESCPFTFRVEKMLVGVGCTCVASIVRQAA", "assay": "ELISA, plates coated with IL17A, serial dilutions of sIL17R, detection with biotinylated anti-IL17RA and streptavidin-HRP", "description": "as §1"}}}
{"binder": "sIL17R-9gly-CH3 (soluble human IL-17 receptor A linked by nine glycines to the CH3 domain of human IgG1) (Fc fusion, also called sIL17RA-9gly-CH3; sIL17R-9G-CH3) SLRLLDHRALVCSQPGLNCTVKNSTCLDDSWIHPRNLTPSSPKDLQIQLHFAHTQQGDLFPVAHIEWTLQTDASILYLEGAELSVLQLNTNERLCVRFEFLSKLRHHHRRWRFTFSHFVVDPDQEYEVTVHHLPKPIPDGDPNHQSKNFLVPDCEHARMKVTTPCMSSGSLWDPNITVETLEAHQLRVSFTLWNESTHYQILLTSFPHMENHSCFEHMHHIPAPRPEEFHQRSNVTLTLRNLKGCCRHQVQIQPFFSSCLNDCLRHSATVSCPEMPDTPEPIPDYMTGGGGGGGGGQPREPQVYTLPPSRDELTKNQVSLTCLVKGFYPSDIAVEWESNGQPENNYKTTPPVLDSDGSFFLYSKLTVDKSRWQQGNVFSCSVMHEALHNHYTQKSLSLSPG", "values": [{"measurement": "binding result", "setting": "human IL17A", "value": "binds"}, {"measurement": "binding result", "setting": "mouse IL17A", "value": "binds"}]}
